Experiments:
[1] = target: VDR:RXRa (Homo sapiens, UniProt P11473;P19793 full;full); experiment: no ligand; PBM; 270 nM : 90 nM RXRa; PBS pH 7.4, 2% milk, 0.02% Triton X-100, 1 mM DTT, BSA, 0.4 mg/ml salmon testes DNA; settings: tags: His kept;His cleaved; copies: 1;1; label: surface-attached array probe
Procedure, shortened: (§1)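 Regression normalization was applied to scanned fluorescence from custom Agilent 4×180K protein-binding microarrays. Before scanning, arrays were incubated 1 h with ligand-free nuclear receptor dimers, and binding was detected with antibodies against each partner (one per run). Binding z-scores use the random background probes as reference.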

[2] = target: PXR:RXRa (Homo sapiens, UniProt O75469;P19793 full;full); experiment: as above; settings: tags: His kept;His cleaved; copies: 1;1; label: surface-attached array probe
PXR:RXRa, sequence (O75469 whole entry, chain 1 of 2): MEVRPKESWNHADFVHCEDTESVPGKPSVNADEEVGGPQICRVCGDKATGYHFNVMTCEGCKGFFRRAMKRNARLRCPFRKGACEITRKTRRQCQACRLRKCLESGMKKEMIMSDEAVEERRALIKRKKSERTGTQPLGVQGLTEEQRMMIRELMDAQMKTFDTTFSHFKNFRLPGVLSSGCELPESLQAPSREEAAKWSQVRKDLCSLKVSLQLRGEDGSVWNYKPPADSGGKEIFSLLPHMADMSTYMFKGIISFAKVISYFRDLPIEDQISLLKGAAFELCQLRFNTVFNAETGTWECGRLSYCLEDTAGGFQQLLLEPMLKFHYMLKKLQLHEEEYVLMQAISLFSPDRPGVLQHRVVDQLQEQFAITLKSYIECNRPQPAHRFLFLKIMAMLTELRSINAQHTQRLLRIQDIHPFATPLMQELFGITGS
PXR:RXRa, sequence (P19793 whole entry, chain 2 of 2): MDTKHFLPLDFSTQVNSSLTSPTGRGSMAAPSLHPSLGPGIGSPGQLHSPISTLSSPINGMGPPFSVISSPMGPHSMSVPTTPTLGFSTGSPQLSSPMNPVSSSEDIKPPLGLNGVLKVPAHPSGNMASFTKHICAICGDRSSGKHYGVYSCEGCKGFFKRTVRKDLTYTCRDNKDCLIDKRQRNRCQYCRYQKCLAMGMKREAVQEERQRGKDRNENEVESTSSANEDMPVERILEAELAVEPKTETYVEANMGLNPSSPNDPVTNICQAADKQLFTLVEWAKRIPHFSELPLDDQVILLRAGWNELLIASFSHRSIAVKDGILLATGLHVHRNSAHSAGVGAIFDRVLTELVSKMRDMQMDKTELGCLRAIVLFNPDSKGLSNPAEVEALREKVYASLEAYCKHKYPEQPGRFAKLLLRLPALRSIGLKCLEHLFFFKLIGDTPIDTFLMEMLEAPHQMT
Procedure, shortened: as §1

[3] = target: RARg:RXRa (Homo sapiens, UniProt P13631;P19793 full;full); experiment: as above; settings: tags: His kept;His cleaved; copies: 1;1; label: surface-attached array probe
RARg:RXRa, sequence (P13631 whole entry, chain 1 of 2): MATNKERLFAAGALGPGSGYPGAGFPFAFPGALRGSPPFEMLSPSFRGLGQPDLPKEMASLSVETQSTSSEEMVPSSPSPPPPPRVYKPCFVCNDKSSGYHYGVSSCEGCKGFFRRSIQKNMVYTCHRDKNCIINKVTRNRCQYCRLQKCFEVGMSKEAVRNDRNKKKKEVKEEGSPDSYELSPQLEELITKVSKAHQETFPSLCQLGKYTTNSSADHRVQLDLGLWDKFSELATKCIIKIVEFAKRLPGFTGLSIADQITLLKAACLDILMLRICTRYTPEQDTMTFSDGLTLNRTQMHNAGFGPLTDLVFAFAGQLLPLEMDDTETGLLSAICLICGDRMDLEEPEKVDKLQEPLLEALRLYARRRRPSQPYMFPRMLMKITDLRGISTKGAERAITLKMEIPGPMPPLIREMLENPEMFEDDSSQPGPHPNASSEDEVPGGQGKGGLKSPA
RARg:RXRa, sequence (P19793 whole entry, chain 2 of 2): as the sequence (P19793 whole entry, chain 2 of 2) above
Procedure, shortened: as §1

[4] = target: FXR:RXRa (Homo sapiens, UniProt Q96RI1;P19793 full;full); experiment: as above; settings: tags: His kept;His cleaved; copies: 1;1; label: surface-attached array probe
FXR:RXRa, sequence (Q96RI1 whole entry, chain 1 of 2): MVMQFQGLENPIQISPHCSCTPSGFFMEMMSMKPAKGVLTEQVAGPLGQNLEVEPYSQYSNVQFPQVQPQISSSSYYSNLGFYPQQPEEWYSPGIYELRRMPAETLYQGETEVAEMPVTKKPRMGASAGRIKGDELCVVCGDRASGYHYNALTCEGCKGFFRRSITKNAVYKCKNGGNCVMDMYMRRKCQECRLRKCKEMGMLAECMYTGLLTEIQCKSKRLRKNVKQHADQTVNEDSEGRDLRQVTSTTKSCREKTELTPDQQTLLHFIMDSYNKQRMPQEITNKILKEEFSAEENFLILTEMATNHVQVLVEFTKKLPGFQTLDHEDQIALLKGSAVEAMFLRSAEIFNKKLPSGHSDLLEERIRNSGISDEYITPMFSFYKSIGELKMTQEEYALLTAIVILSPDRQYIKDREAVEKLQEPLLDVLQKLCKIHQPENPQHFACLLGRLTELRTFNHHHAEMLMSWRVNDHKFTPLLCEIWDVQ
FXR:RXRa, sequence (P19793 whole entry, chain 2 of 2): as the sequence (P19793 whole entry, chain 2 of 2) above
Procedure, shortened: as §1

[5] = target: RXRa (Homo sapiens, UniProt P19793); experiment: no ligand; PBM; 180 nM; PBS pH 7.4, 2% milk, 0.02% Triton X-100, 1 mM DTT, BSA, 0.4 mg/ml salmon testes DNA; settings: tags: His cleaved; chain copies: 2; label: surface-attached array probe
RXRa, sequence (P19793 whole entry): as the sequence (P19793 whole entry, chain 2 of 2) above

[6] = target: PPARa:RXRa (Homo sapiens, UniProt Q07869;P19793 full;full); experiment: no ligand; PBM; 270 nM : 90 nM RXRa; PBS pH 7.4, 2% milk, 0.02% Triton X-100, 1 mM DTT, BSA, 0.4 mg/ml salmon testes DNA; settings: tags: GST kept;His cleaved; copies: 1;1; label: surface-attached array probe
PPARa:RXRa, sequence (Q07869 whole entry, chain 1 of 2): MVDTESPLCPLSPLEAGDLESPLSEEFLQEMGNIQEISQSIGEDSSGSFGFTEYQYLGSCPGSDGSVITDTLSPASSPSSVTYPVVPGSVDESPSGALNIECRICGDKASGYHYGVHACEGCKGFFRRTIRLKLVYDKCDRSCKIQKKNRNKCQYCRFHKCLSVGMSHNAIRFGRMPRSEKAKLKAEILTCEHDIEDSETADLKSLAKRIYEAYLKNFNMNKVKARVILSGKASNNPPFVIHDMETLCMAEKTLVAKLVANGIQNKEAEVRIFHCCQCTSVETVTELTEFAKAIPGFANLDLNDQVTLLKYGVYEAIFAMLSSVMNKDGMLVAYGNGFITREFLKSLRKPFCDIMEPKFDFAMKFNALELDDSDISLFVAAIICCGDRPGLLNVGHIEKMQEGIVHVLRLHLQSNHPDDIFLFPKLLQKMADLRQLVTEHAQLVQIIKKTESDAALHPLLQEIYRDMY
PPARa:RXRa, sequence (P19793 whole entry, chain 2 of 2): as the sequence (P19793 whole entry, chain 2 of 2) above
Procedure, shortened: as §1

[7] = target: RARb:RXRa (Homo sapiens, UniProt P10826;P19793 full;full); experiment: as above; settings: tags: His kept;His cleaved; copies: 1;1; label: surface-attached array probe
RARb:RXRa, sequence (P10826 whole entry, chain 1 of 2): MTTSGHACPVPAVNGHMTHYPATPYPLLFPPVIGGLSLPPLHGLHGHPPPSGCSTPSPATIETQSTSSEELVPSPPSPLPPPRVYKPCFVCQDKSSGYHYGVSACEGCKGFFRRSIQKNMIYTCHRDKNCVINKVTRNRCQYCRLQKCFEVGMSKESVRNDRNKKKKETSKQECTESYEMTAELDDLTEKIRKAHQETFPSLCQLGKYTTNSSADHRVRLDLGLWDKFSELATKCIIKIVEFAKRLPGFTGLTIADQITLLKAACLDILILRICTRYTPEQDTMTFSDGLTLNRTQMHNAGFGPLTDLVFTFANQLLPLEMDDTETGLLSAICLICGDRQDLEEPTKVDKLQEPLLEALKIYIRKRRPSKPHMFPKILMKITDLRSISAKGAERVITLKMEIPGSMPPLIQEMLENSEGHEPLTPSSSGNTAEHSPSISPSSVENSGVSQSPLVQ
RARb:RXRa, sequence (P19793 whole entry, chain 2 of 2): as the sequence (P19793 whole entry, chain 2 of 2) above
Procedure, shortened: as §1

VDR:RXRa, sequence (P11473 whole entry, chain 1 of 2): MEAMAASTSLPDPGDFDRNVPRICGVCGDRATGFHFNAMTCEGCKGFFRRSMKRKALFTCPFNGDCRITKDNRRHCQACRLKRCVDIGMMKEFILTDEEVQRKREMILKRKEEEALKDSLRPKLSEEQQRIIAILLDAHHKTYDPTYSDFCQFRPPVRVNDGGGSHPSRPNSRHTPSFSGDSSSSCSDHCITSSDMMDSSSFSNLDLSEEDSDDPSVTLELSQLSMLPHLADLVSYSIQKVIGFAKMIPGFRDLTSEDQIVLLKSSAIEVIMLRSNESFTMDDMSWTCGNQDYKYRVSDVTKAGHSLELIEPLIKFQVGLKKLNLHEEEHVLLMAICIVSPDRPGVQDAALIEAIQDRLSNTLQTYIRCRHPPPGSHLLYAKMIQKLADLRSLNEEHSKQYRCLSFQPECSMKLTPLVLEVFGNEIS
VDR:RXRa, sequence (P19793 whole entry, chain 2 of 2): as the sequence (P19793 whole entry, chain 2 of 2) above

Row | Binder | binding signal [1] | binding signal [2] | further results
1 | NRC3_wobSeed113_DR4_T13C_o1 (dsDNA) DNA 1: GCATATGTAGGTCAGCTGGGGTCATTCAGACTAGGCGCGATTGACAGCGTAGAATGAAGG DNA 2: CCTTCATTCTACGCTGTCAATCGCGCCTAGTCTGAATGACCCCAGCTGACCTACATATGC | 7.24 PBM z-score against 500 random probes | 7.5 PBM z-score against 500 random probes | 
2 | NRC3_wobSeed37_DR1_A8G_o1 (dsDNA) DNA 1: GCCGTCCGAGGTCAAAGGTCAGTGAAGAGATGACGGGCGATTGACAGCGTAGAATGAAGG DNA 2: CCTTCATTCTACGCTGTCAATCGCCCGTCATCTCTTCACTGACCTTTGACCTCGGACGGC | 7.2 PBM z-score against 500 random probes | 7.4 PBM z-score against 500 random probes | 
3 | NRC3_wobSeed137_DR5_C19G_o1 (dsDNA) DNA 1: GCATATGTAGGTTACATCGGGGTCATTCAGGCTATGGCGATTGACAGCGTAGAATGAAGG DNA 2: CCTTCATTCTACGCTGTCAATCGCCATAGCCTGAATGACCCCGATGTAACCTACATATGC | 6.54 PBM z-score against 500 random probes | 6.55 PBM z-score against 500 random probes | 
4 | NRC3_wobSeed137_DR5_C18G_o1 (dsDNA) DNA 1: GCATATGTAGGTTACATGCGGGTCATTCAGGCTATGGCGATTGACAGCGTAGAATGAAGG DNA 2: CCTTCATTCTACGCTGTCAATCGCCATAGCCTGAATGACCCGCATGTAACCTACATATGC |  | 3.01 PBM z-score against 500 random probes | binding signal [3]: 3.89 PBM z-score against 500 random probes
5 | NRC3_wobSeed95_DR3_G22C_o1 (dsDNA) DNA 1: GCAGAACGAGGGCAATGAGTTCATAGCACGGGTGGCGCGATTGACAGCGTAGAATGAAGG DNA 2: CCTTCATTCTACGCTGTCAATCGCGCCACCCGTGCTATGAACTCATTGCCCTCGTTCTGC | 8.01 PBM z-score against 500 random probes | 7.08 PBM z-score against 500 random probes | 
6 | NRC3_wobSeed120_DR4_T13C_o1 (dsDNA) DNA 1: GCCCGAGTAGGTCACGAGGGGGCATTCAGTGCGAATGCGATTGACAGCGTAGAATGAAGG DNA 2: CCTTCATTCTACGCTGTCAATCGCATTCGCACTGAATGCCCCCTCGTGACCTACTCGGGC | 7.01 PBM z-score against 500 random probes | 6.39 PBM z-score against 500 random probes | 
7 | NRC3_random_hg19_134_o1 (dsDNA) DNA 1: GCAGCTCCACTTCATGCCAGGCCTGGGCTAGAGGCTGCGATTGACAGCGTAGAATGAAGG DNA 2: CCTTCATTCTACGCTGTCAATCGCAGCCTCTAGCCCAGGCCTGGCATGAAGTGGAGCTGC |  | -0.78 PBM z-score against 500 random probes | binding signal [4]: -0.54 PBM z-score against 500 random probes
8 | NRC3_wobSeed109_DR4_G21T_o1 (dsDNA) DNA 1: GCCGTCCAAGGTCATAGGAGTTCAGTGAAGACAGATGCGATTGACAGCGTAGAATGAAGG DNA 2: CCTTCATTCTACGCTGTCAATCGCATCTGTCTTCACTGAACTCCTATGACCTTGGACGGC | 7.28 PBM z-score against 500 random probes | 7.41 PBM z-score against 500 random probes | 
9 | NRC3_wobSeed109_DR4_G17C_o1 (dsDNA) DNA 1: GCCGTCCAAGGTCATACGAGGTCAGTGAAGACAGATGCGATTGACAGCGTAGAATGAAGG DNA 2: CCTTCATTCTACGCTGTCAATCGCATCTGTCTTCACTGACCTCGTATGACCTTGGACGGC | 7.31 PBM z-score against 500 random probes | 7.4 PBM z-score against 500 random probes | 
10 | NRC3_random_hg19_340_o1 (dsDNA) DNA 1: GCGCCTTGTCCTTCTGCAGCTGCTGGTGCAGCCCAGGCGATTGACAGCGTAGAATGAAGG DNA 2: CCTTCATTCTACGCTGTCAATCGCCTGGGCTGCACCAGCAGCTGCAGAAGGACAAGGCGC |  | -0.91 PBM z-score against 500 random probes | binding signal [3]: -0.68 PBM z-score against 500 random probes
11 | NRC3_random_hg19_401_o1 (dsDNA) DNA 1: GCTCTCCATCTTGAGTACCAGCCCTGTTCTTCCAGTGCGATTGACAGCGTAGAATGAAGG DNA 2: CCTTCATTCTACGCTGTCAATCGCACTGGAAGAACAGGGCTGGTACTCAAGATGGAGAGC |  | 0.41 PBM z-score against 500 random probes | binding signal [3]: -0.32 PBM z-score against 500 random probes
12 | NRC3_wobSeed121_DR5_A19G_o1 (dsDNA) DNA 1: GCCAAACTAGGTCACCGGGAGGTCAAAGTCCGCATGGCGATTGACAGCGTAGAATGAAGG DNA 2: CCTTCATTCTACGCTGTCAATCGCCATGCGGACTTTGACCTCCCGGTGACCTAGTTTGGC | 6.81 PBM z-score against 500 random probes | 6.61 PBM z-score against 500 random probes | 
13 | NRC3_random_hg19_237_o1 (dsDNA) DNA 1: GCTGCAGAGAGGCCACCAGCCAGCCCAGACCCATGCGCGATTGACAGCGTAGAATGAAGG DNA 2: CCTTCATTCTACGCTGTCAATCGCGCATGGGTCTGGGCTGGCTGGTGGCCTCTCTGCAGC |  | -0.57 PBM z-score against 500 random probes | binding signal [5]: 0.12 PBM z-score against 500 random probes
14 | NRC3_random_hg19_464_o1 (dsDNA) DNA 1: GCAGAACCTCATTGCTTATCGCACAGATGAGATGCGGCGATTGACAGCGTAGAATGAAGG DNA 2: CCTTCATTCTACGCTGTCAATCGCCGCATCTCATCTGTGCGATAAGCAATGAGGTTCTGC |  | -0.05 PBM z-score against 500 random probes | binding signal [5]: 0.3 PBM z-score against 500 random probes; binding signal [6]: -0.25 PBM z-score against 500 random probes
15 | NRC3_wobSeed34_DR1_G6A_o1 (dsDNA) DNA 1: GCATCAAAAGGTCGAAGGTGAGTATACCCACCCGAAGCGATTGACAGCGTAGAATGAAGG DNA 2: CCTTCATTCTACGCTGTCAATCGCTTCGGGTGGGTATACTCACCTTCGACCTTTTGATGC | 3.23 PBM z-score against 500 random probes | 3.15 PBM z-score against 500 random probes | 
16 | NRC3_random_hg19_344_o1 (dsDNA) DNA 1: GCCGGAAGAGAATTCTTGCCTGCCCACTGGTAGAATGCGATTGACAGCGTAGAATGAAGG DNA 2: CCTTCATTCTACGCTGTCAATCGCATTCTACCAGTGGGCAGGCAAGAATTCTCTTCCGGC |  | -0.71 PBM z-score against 500 random probes | binding signal [5]: -0.83 PBM z-score against 500 random probes
17 | NRC3_wobSeed84_DR3_T8G_o1 (dsDNA) DNA 1: GCCCGACGGGGGCAGAAAGGTTACCATACCATCCGGGCGATTGACAGCGTAGAATGAAGG DNA 2: CCTTCATTCTACGCTGTCAATCGCCCGGATGGTATGGTAACCTTTCTGCCCCCGTCGGGC |  | 3.49 PBM z-score against 500 random probes | binding signal [7]: 3.11 PBM z-score against 500 random probes
18 | NRC3_random_hg19_432_o1 (dsDNA) DNA 1: GCATGTCAATGGTAGTTTGATGGGAATAGTATTGAGGCGATTGACAGCGTAGAATGAAGG DNA 2: CCTTCATTCTACGCTGTCAATCGCCTCAATACTATTCCCATCAAACTACCATTGACATGC |  | -0.12 PBM z-score against 500 random probes | binding signal [5]: 0.02 PBM z-score against 500 random probes
19 | NRC3_random_hg19_102_o1 (dsDNA) DNA 1: GCCAGATGAAATGACCAGGCTGTTACCAGGGTCTATGCGATTGACAGCGTAGAATGAAGG DNA 2: CCTTCATTCTACGCTGTCAATCGCATAGACCCTGGTAACAGCCTGGTCATTTCATCTGGC |  | -0.16 PBM z-score against 500 random probes | binding signal [5]: 0.48 PBM z-score against 500 random probes; binding signal [3]: 0.17 PBM z-score against 500 random probes
20 | NRC3_random_hg19_9_o1 (dsDNA) DNA 1: GCAGGACTCCTCGTGAAGAGCAGGTGGGAGCGAGTCGCGATTGACAGCGTAGAATGAAGG DNA 2: CCTTCATTCTACGCTGTCAATCGCGACTCGCTCCCACCTGCTCTTCACGAGGAGTCCTGC |  | -0.76 PBM z-score against 500 random probes | binding signal [3]: -0.88 PBM z-score against 500 random probes
21 | NRC3_random_hg19_219_o1 (dsDNA) DNA 1: GCTATAGCTCACAACCTCATACCAGGAAGGGCTCAGGCGATTGACAGCGTAGAATGAAGG DNA 2: CCTTCATTCTACGCTGTCAATCGCCTGAGCCCTTCCTGGTATGAGGTTGTGAGCTATAGC |  | -0.27 PBM z-score against 500 random probes | binding signal [7]: -0.28 PBM z-score against 500 random probes
22 | NRC3_wobSeed89_DR3_G19A_o1 (dsDNA) DNA 1: GCCTATGTAGGTTAAGGGAGTCATTCAGTTTGAAAGGCGATTGACAGCGTAGAATGAAGG DNA 2: CCTTCATTCTACGCTGTCAATCGCCTTTCAAACTGAATGACTCCCTTAACCTACATAGGC |  | 0.45 PBM z-score against 500 random probes | binding signal [4]: 0.48 PBM z-score against 500 random probes; binding signal [3]: 0.49 PBM z-score against 500 random probes
23 | NRC3_wobSeed89_DR3_G16C_o1 (dsDNA) DNA 1: GCCTATGTAGGTTAACGGGGTCATTCAGTTTGAAAGGCGATTGACAGCGTAGAATGAAGG DNA 2: CCTTCATTCTACGCTGTCAATCGCCTTTCAAACTGAATGACCCCGTTAACCTACATAGGC | 8.07 PBM z-score against 500 random probes | 6.67 PBM z-score against 500 random probes | 
24 | NRC3_wobSeed85_DR3_C13A_o1 (dsDNA) DNA 1: GCCGTCCAAGGTAAGAGAGGTCAGTGAATGCCGAGTGCGATTGACAGCGTAGAATGAAGG DNA 2: CCTTCATTCTACGCTGTCAATCGCACTCGGCATTCACTGACCTCTCTTACCTTGGACGGC |  | 3.25 PBM z-score against 500 random probes | binding signal [7]: 3.07 PBM z-score against 500 random probes
25 | NRC3_wobSeed85_DR3_G24C_o1 (dsDNA) DNA 1: GCCGTCCAAGGTCAGAGAGGTCACTGAATGCCGAGTGCGATTGACAGCGTAGAATGAAGG DNA 2: CCTTCATTCTACGCTGTCAATCGCACTCGGCATTCAGTGACCTCTCTGACCTTGGACGGC | 7.9 PBM z-score against 500 random probes | 6.76 PBM z-score against 500 random probes | 
